The values below come from patent US8865222B2, “Beta-casein assemblies for enrichment of food and beverages and methods of preparation thereof” (Technion Research and Development Foundation Ltd., priority 2008, dated 2014).

“And” between values parts separate entries of the source, which are not always exact repeats. Equal values may be shown once.

This series in a line: Small angle X-ray scattering (SAXS) of beta-casein micellar solutions. In kind it is physicochemical. The conditions noted are these: for aggregation number: pH 6.7, 0.05M NaCl. The protocol: Small Angle X-ray Scattering (SAXS): The small angle x-ray scattering equipment consisted of a SAXSess camera (Anton-Paar, Graz, Austria) connected to an x-ray generator (Philips, PW1730/10) operating at 40 kV and 50 mA with a sealed-tube Cu anode. A Göbel mirror was used to convert the divergent polychromatic x-ray beam into a focused line-shaped beam of Cu Kα radiation (λ=0.154 nm). The 2D scattering pattern was recorded by a PI-SCX fused fiber optic taper CCD camera from Princeton Instruments, which is a division of Roper Scientific, Inc. (Trenton, N.J., USA). The used CCD detector features a 2084×2084 array with 24×24 μm pixel size (chip size: 50×50 mm). The CCD was operated at −30° C. with 10° C. water-assisted cooling to reduce the thermally generated charge. Cosmic ray correction and background subtraction were performed on the 2D image before further data processing. The 2D image was integrated into the one-dimensional scattering function within a band of 10 mm. The measurement time was 30 min for each scattering curve (6 images of 5 minutes were taken to assist the cosmic ray correction).
Determination of the Beta-Casein Assemblies Molecular Weights.
The molecular weight of the scattering aggregates were calculated according to Eq. 1:
[formula] where M is the molecular weight, dΣ(0)/dΩ (cm^−1) the forward scattering intensity at q=0, c (g/cm^3) the beta-casein concentration, NA the Avogadro number, and ΔρM (cm/g) the scattering length difference per mass, given by: ΔρM=Δρ v (2)
The scattering length difference Δρ (cm^−2) was calculated using the known chemical composition of the protein and the solvent, and v (cm^3/g), the specific volume of the protein in the solution that was calculated via density measurement of the solvent and the solution. The micelle aggregation number was then calculated by dividing the molecular weight of the micelles determined with Eq. 1, by the molecular weight of a single protein molecule.
For a particle of arbitrary shape with a scattering density difference of Δρ(r), the pair distance distribution function p(r) (PDDF) is given by: p(r)=r^2Δ ρ^2(r) (3) where Δ ρ^2(r) is the convolution square of Δρ(r) averaged for all directions in space. The PDDF is related to the scattered intensity I(q) by a Fourier transformation, and it enables the determination of the overall shape and size of the scattering objects.
[formula] where q is the magnitude of the scattering vector q, defined as
[formula] λ is the wavelength of the incident radiation and θ is the angle between the scattered and incident beam. The function ƒ(r)=p(r)/r (6) is useful to identify flat plate-like particles, although it has no direct physical meaning. For lamellae, this function starts with a linearly increasing part and becomes almost flat when r is equal to the thickness of the lamella. For flat particles with a finite base area, the outer part decreases linearly because of boundary losses. The thickness of the lamella can then be read from the transition point. […] The standard error of the analytical ultracentrifugation data is 5%, and that of the Rg is 4%. The analysis supports the statistical significance and validity of the results.
• Characterization of the beta-casein micelles by SAXS: We have applied SAXS measurements to determine the shape and dimensions of the micelles at low pH and at neutral pH, more precisely, and to evaluate the micelle molecular weight (i.e., the aggregation number). The scattering curves of 20 mg/mL beta-casein in lactic acid solution (pH 2.6, IS 0.0022) at different temperatures are shown in FIG. 3a. […] Consequently, the calculated Pair Distance Distribution Functions (PDDF), are also similar (FIG. 3b). The maximum micelle dimension is approximately 25 nm at all temperatures. The area under the PDDF curve, which is proportional to the weight of one particle, is almost constant. To calculate the aggregation number, the density of the solvent and the solution was measured at various temperatures (Table 2). […]

B1: beta-casein: lyophilized bovine beta-casein (~24 kDa milk protein) self-assembled into nano-sized micelles at low or neutral pH (protein, UniProt P02666 16-224, looked up)
Beta-casein: RELEELNVPGEIVESLSSSEESITRINKKIEKFQSEEQQQTEDELQDKIHPFAQTQSLVYPFPGPIPNSLPQNIPPLTQTPVVVPPFLQPEVMGVSKVKEAMAPKHKEMPFPKYPVEPFTESQSLTLTDVENLHLPLPLLQSWMHQPHQPLPPTVMFPPQSVLSLSQSKVLPVPQKAVPYPQRDMPIQAFLLYQEPVLGPVRGPFPIIV
B1: the maximum micelle dimension result (20 mg/mL, pH 2.6, IS 0.0022, all temperatures 4-40 °C) is “approximately 25 nm”. This molecule also returned an aggregation number (20 mg/mL, 1 °C) of 7 and an aggregation number (20 mg/mL, 60 °C) of 210. Also, the Nagg by setting is: (pH 2.6, 4 °C, 2 wt % beta-casein, SAXS) 8; (pH 2.6, 16 °C, SAXS) 10; (pH 2.6, 25 °C, SAXS) 11; (pH 2.6, 40 °C, SAXS) 9. The aggregation state entry is given as “monomers” (pH 2.6, 25 °C, 0.1 wt %) and “dimers” (pH 2.6, 25 °C, 0.25 wt %). In addition, the CMC (pH 2.6, 25 °C, SAXS) is listed as 0.1-0.2 wt %. Moreover, the “thickness of the particles” value (pH 2.6, all temperatures, from f(r) transition point) is reported as about 3.5 nm. Moreover, the “Micelle Dimensions” value (pH 2.6, as a function of temperature 4-40 °C) is “Constant”. For the setting “pH 7.0, ionic strength 0.1, depending on protein concentration”, the “typical sizes of beta-casein micelles” value is 13-15 nm and 22-25 nm.
